The source of these data is paper PMC8680157.

The target in experiment [1] is fluorescently labelled nucleosome core particle (NCP), non-ubiquitylated (human) (UniProt P68431). As to the kind of experiment: fluorescence polarisation. A general note: Fluorescence polarisation rises when a labelled molecule tumbles more slowly, as on binding a larger partner.
For experiment [2], the target named is fluorescently labelled nucleosome core particle ubiquitylated at H2A K13 and K15 (human) (UniProt P68431). In words: fluorescence polarisation.

GST-tagged BARD1 (ARD–BRCT), residues 415–777, wild type, sequence (Q99728 415-777): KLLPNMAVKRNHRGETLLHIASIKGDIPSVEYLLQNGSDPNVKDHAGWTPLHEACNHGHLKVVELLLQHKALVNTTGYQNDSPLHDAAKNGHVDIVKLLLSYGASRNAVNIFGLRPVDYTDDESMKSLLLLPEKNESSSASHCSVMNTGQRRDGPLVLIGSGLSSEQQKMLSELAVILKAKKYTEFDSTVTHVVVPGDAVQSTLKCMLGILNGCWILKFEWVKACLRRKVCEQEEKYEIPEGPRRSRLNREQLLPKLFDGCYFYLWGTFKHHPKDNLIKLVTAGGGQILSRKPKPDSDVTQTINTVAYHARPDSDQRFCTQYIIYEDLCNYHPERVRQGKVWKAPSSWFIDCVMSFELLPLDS

For orientation: Kd means the constant that tells how readily two partners part at equilibrium. A high value points to weaker binding. In the case of “BRCA1^R–BARD1^Long, BRCA1 (residues 1–100)–BARD1 (residues 26–777) (from UniProt P38398 1-100; Q99728 26-777) (enzyme)”, the Kd was 60 nM in experiment [1] and 20 nM in experiment [2].

Turning to “BRCA1^R–BARD1^R, fusion of BRCA1 (residues 1–100) and BARD1 (residues 26–122) (from UniProt P38398 1-100; Q99728 26-122) (enzyme)”, the Kd in experiment [1] came out at 8000 nM. This lies in the single-digit micromolar range.

“GST-tagged BARD1 (ARD–BRCT), residues 415–777, wild type (from UniProt Q99728 415-777) (domain or fragment)” had a Kd in experiment [2] of 200 nM. This counts as sub-micromolar.
